Laboratory results taken from patent US20260116991A1 (HAINAN SIMCERE ZAIMING PHARMACEUTICAL, published 2026).
Where a chain is given by its changes, count along the chain named.

B1: F2.154.1 human-murine chimeric antibody (antibody, human IgG1, kappa, V domains shown)
VH: QVQLQQSGAELVRPGASVKLSCKASGYRFTDYEMHWVKQTPVHGLEWIGTIDPETGNTAYTQKFMDKATLTADKSSSTAYMELRSLTSEDSAVYYCTRGYSFTYWGQGTLATVSA
VL: DVLMTQTPLSLPVSLGDQASISCRSSQNIVHSNGNTYLQWYLQKPGQSPKLLIFKVSNRFSGVPDRFSGSGSGTDFTLKISRVEAEDLGVYYCFQGSHVPFTFGTGTKLEIKR
B2: F4.21.16 human-murine chimeric antibody (antibody, human IgG1, kappa, V domains shown)
VH: DVQLQESGPGLVKPSQSLSLTCSVTGYSITSGYYWNWIRQFPGNKLEWMGYISYDVTVNYNPSLKNRISITRDTSKNQFFLKLNSVTTEDTATYYCATITSVASMDHWGQGTSVTVSS
VL: B1 VL with V2I, S32R, Q39E, I53L, F54Y, V90I, V99F, T105S
B3: F2.169.2 human-murine chimeric antibody (antibody, human IgG1, kappa, V domains shown)
VH: EVQLVETGGGLVQPKGSLKLSCAASGFSFNTNAMNWVRQAPGKGLEWVARIRSKSNNYATYYADSVKDRFTISRDDSQSMLYLQMNNLKTEDTAMYYCVRDGYYVLFAYWGQGTLVTVSA
VL: B1 VL with S25F, N28S, H31N, Q39E, Y41F, F54Y
B4: F2.152.3 human-murine chimeric antibody (antibody, human IgG1, kappa, V domains shown)
VH: EVQLQQSGPELVKPGASVKMSCKASGYTFTDYYMTWVKQSHGKSLEWIGRVNPRNGDTTYNQKFEGRATLTLDKSLSTAFMQLNSLTSEDSAVYYCINSKGHFDYWGQGTTLTVSS
VL: B1 VL with N28S, Q39E, Y41F, L51S, F54Y, F101P, T105A, I111L
B5: F2.23.8 human-murine chimeric antibody (antibody, human IgG1, kappa, V domains shown)
VH: B1 VH with R28T, I48F, T50A, N57G, T61N, M65R, D66A, G99F, T103A, A111V
VL: DVVMTQTPLSLPVSLGDQASISCRSSQSLVHSNGNTYLQWYLQKPGQSPKLLIYKVSNRFSGVPDRFSGSGSGTDFTLKITRVEAEDLGVYFCSQSTHVPYTFGSGTKLEIKR
B6: F3.81.19 human-murine chimeric antibody (antibody, human IgG1, kappa, V domains shown)
VH: B1 VH with R28T, T61N, M65K, D66G, G99P, F102L, A111V
VL: B1 VL with M4L, N28S, I29F, N35D, F54Y, F101Y, T105S
B7: F3.38.7 human-murine chimeric antibody (antibody, human IgG1, kappa, V domains shown)
VH: QVQLQQSGAELVRPGASVKLSCKASGYTFTDYEIHWVKQTPVLGLEWIGAIDPKTGNTAYNQKFMGKATLTADKSSTTAYMDLRSLTSEDSAVYYCTRYFSFAYWGQGTLVTVSA
VL: B1 VL with N28T, I29F, F54Y, F101Y, T105S
B8: F2.39.2 human-murine chimeric antibody (antibody, human IgG1, kappa, V domains shown)
VH: QVQLQQSGAELVRPGASVKVSCKASGYTFTDYEMHWMKQTPVHGLEWIGANEPETGRSAYDQKFKGKATLTADKSSSTAYMELRSLTSEDSAVYYCTRFYSFAYWGQGTLVTVSA
VL: B5 VL with S28G, S32N, Q39H, T81S, S96N, Y101P, S105G
B9: F4.26.1 human-murine chimeric antibody (antibody, human IgG1, kappa, V domains shown)
VH: QVQLKQSGPGLVQPSQSLSITCTVSGFSLTSYGVHWVRQSPGKGLEWLGVIWSSGNTDYNAVLISRLSIKKDDSKSQVFFKMNSPQVDDSAIYYCGRNGGWLLRGFMDFWGQGTSVTVSS
VL: B5 VL with V30L, Q39H, K44R, P45S, K50N, S70G, T81S, V90I, Y101W, S105G
B10: F3.54.12 human-murine chimeric antibody (antibody, human IgG1, kappa, V domains shown)
VH: QVQLQQSGAELVRPGASVKLSCKASGYTFTDYEMHWVKQTPVHGLEWIGAIDPETGNTAYIQKFKGKATLTTDKSSSTAYMELRSLTSEDSAVYYCTRFYSYSHWGQGTTLTVSS
VL: B5 VL with Q39H, G71S, T81S, S96N, Y101P, S105G
B11: F2.92.1 human-murine chimeric antibody (antibody, human IgG1, kappa, V domains shown)
VH: QVQLQQSGAELVRPGASVKLSCKASGYIFSDYEIHWVKQTPVHGLECIGAVDPETGGTAYNQKFKGKATLTADKSSSTAYMELRSLTSEDSAVYFCTRFYSFAYWGQGTLVTVST
VL: B5 VL with A19G, T81S, S94C, P100L, Y101P, S105G
B12: F4.13.7 human-murine chimeric antibody (antibody, human IgG1, kappa, V domains shown)
VH: QVQLQQPGAELVKPGASVKLSCKASGYTFTNNWVHWVKQRPGQGLEWTGMIHPDSGSTIYNEKFQSKATLTVDKSSSTAYMQLSSLTSEDSAVYYCARGYYDSSSYYAMDYWGQGTSVTVSS
VL: NIQMTQTTSSLSASLGDRVTISCSASQGIFNYLNWYQQKPDGTVKLLIYYTSSLHSGVPSRFSGSGSGTDYSLTISNLEPEDIATYYCQQYSKLPWTFGGGTKLEIKR
B13: F2.55.11 human-murine chimeric antibody (antibody, human IgG1, kappa, V domains shown)
VH: EVKLVESGGGLVKPGGSLKLSCAASGLTFSTCTMSWVRQTPAKRLEWVATISSGGGNTYYPDSVKGRFTISRDNARNTLYLQMSSLRSEDTAMYYCVRLYYDGSPYAMDYWGQGTSVTVSS
VL: DIQMTQTTSSLSASLGDRVTISCRASQDISNHLNWYQQKPDGTVKLLIYYTSRLHSGVPSRFSGSGSGTDYSLTISNLEQEDIATYFCQQDSKPPPTFGSGTKLEIKR
B14: F4.18.4 human-murine chimeric antibody (antibody, human IgG1, kappa, V domains shown)
VH: QVQLHQSGAEMAKPGASVNLSCKTSGFTFTDYGISWVKQRTRQGLEWIGDIYPRHINIYYNEKFKDKATLTADRSSSTAYMELRSMTSEDSAVYFCARRGTTGRGALDYWGQGTSLTVSS
VL: DILLTQSPAILSVSPGERVSFSCRASQSIGTSIHWYQQRTNGSPRLLIKYAFESISGIPSRFGGSGSRTDFTLTINSVESEDIADYYCQQTYNWPYTFGGGTKLEIKR

Molecular target: T1, murine GPC3-his protein (Sino Biological, Cat. No. 50989-M08B) (murine, UniProt Q8CFZ4 25-558)
T1 construct: Bought protein; also called murine GPC3 protein
T1 sequence (Q8CFZ4 25-558 limits assumed): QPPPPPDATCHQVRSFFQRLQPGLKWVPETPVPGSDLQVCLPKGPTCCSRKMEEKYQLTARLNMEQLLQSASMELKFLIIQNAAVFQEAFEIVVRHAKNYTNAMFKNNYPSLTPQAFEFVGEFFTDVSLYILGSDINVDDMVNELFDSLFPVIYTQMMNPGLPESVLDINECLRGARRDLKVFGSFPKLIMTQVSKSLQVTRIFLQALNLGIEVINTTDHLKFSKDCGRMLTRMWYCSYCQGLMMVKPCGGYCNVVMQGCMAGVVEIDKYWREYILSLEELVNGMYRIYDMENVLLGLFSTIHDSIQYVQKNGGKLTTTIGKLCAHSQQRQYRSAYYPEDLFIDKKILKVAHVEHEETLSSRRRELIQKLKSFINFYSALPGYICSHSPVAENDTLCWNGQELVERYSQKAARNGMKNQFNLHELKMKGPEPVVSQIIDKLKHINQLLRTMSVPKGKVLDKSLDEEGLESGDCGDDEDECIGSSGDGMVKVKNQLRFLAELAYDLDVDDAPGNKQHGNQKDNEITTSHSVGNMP
Experiment: ELISA, coated murine GPC3-His;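 note: antigen coated on plates at 1 µg/mL, test antibody bound for 2 h at 37 °C, detected with HRP-conjugated secondary antibody and TMB substrate after acid stop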
Procedure: The specific method is described as follows: The antigen protein was diluted with PBS to a final concentration of 1 μg/mL, and the diluent was added to a 96-well ELISA plate at 50 μL/well. The plate was sealed with a plastic film and incubated at 4° C. overnight, washed twice with PBS the next day, and a blocking solution [PBS+2% (w/w) BSA] was added for blocking at room temperature for 2 h. […] After incubation at 37° C. for 2 h, the plate was washed 3 times with PBS. A horseradish peroxidase (HRP)-labeled secondary antibody (purchased from Merck, Cat. No. AP113P) was added for incubation at 37° C. for 1 h, and the plate was washed 5 times with PBS. A TMB substrate was added at 50 μL/well for incubation at room temperature for 10 min, then a stop solution (1.0M HCl) was added at 50 μL/well. An ELISA plate reader (Multimode Plate Reader, EnSight, purchased from Perkin Elmer) was used to read OD_{450 nm} values, with results as shown in Table 4 to Table 6, FIG. 1A, FIG. 1B, and FIG. 1C.

| Binder | OD450 at 0.0001 nM antibody [OD450 nm] | OD450 at 0.001 nM antibody [OD450 nm] | OD450 at 0.01 nM antibody [OD450 nm] | OD450 at 0.1 nM antibody [OD450 nm] | OD450 at 1 nM antibody [OD450 nm] | OD450 at 10 nM antibody [OD450 nm] | OD450 at 100 nM antibody [OD450 nm] |
| --- | --- | --- | --- | --- | --- | --- | --- |
| B1 | 0.05 | 0.05 | 0.05 | 0.05 | 0.05 | 0.05 | 0.06 |
| B2 | 0.05 | 0.05 | 0.04 | 0.09 | 0.05 | 0.05 | 0.08 |
| B3 | 0.05 | 0.09 | 0.38 | 1.68 | 2.49 | 2.72 | 2.63 |
| B4 | 0.05 | 0.12 | 0.67 | 1.94 | 2.54 | 2.53 | 2.47 |
| B5 | 0.05 | 0.06 | 0.07 | 0.04 | 0.06 | 0.05 | 0.06 |
| B6 | 0.05 | 0.05 | 0.04 | 0.04 | 0.05 | 0.05 | 0.1 |
| B7 | 0.06 | 0.06 | 0.05 | 0.04 | 0.05 | 0.06 | 0.12 |
| B8 | 0.05 | 0.06 | 0.07 | 0.05 | 0.05 | 0.05 | 0.06 |
| B9 | 0.06 | 0.07 | 0.11 | 0.57 | 0.98 | 1.29 | 0.68 |
| B10 | 0.11 | 0.05 | 0.05 | 0.05 | 0.05 | 0.09 | 0.34 |
| B11 | 0.04 | 0.05 | 0.05 | 0.07 | 0.05 | 0.05 | 0.07 |
| B12 | 0.06 | 0.11 | 0.54 | 2.12 | 2.86 | 2.88 | 2.87 |
| B13 | 0.05 | 0.05 | 0.05 | 0.05 | 0.05 | 0.07 | 0.16 |
| B14 | 0.18 | 0.15 | 0.1 | 0.1 | 0.14 | 0.16 | 0.13 |
